According to patent US8383117:

Key:
[1] = molecular target: T1, CD44E (CD44 isoform 3, epithelial form) (human, UniProt P16070 21-742); test: flow cytometry, MB231 cells; control 4B5-IgG
T1 construct: also called CD44v8-10; VB1-008 Ag
Source text: (§1) Appropriate isotype-matched controls were also used in the study.

[2] = molecular target: T1, CD44E (CD44 isoform 3, epithelial form); test: flow cytometry, DAUDI cells (called antigen-negative); control 4B5-IgG
[3] = molecular target: T1, CD44E (CD44 isoform 3, epithelial form); test: flow cytometry, MDA-MB-435S cells (very positive line)
[4] = molecular target: T1, CD44E (CD44 isoform 3, epithelial form); test: flow cytometry, MCF-7 cells; control 4B5-IgG
Source text: as §1

[5] = molecular target: T1, CD44E (CD44 isoform 3, epithelial form); test: flow cytometry, MB435S cells
Source text: as §1

[6] = molecular target: T1, CD44E (CD44 isoform 3, epithelial form); test: flow cytometry saturation curve on A-375 tumor cells, Lineweaver-Burk; antigen on the cells identified later in the filing as CD44E
Procedure: Values and graphical analysis were generated using Sigma Plot (Jandel Scientific, San Rafael, Calif.). The inverse of the determined median fluorescence was plotted as a function of the inverse of antibody concentration to determine KD by the Lineweaver-Burk method. A straight line was generated and the KD was calculated from the slope of the curve.

[7] = molecular target: T1, CD44E (CD44 isoform 3, epithelial form); test: flow cytometry, RAMOS cells
[8] = molecular target: T1, CD44E (CD44 isoform 3, epithelial form); test: flow cytometry, A-375 cells, surface-bound antibody after 60 min at 37 °C
[9] = molecular target: T1, CD44E (CD44 isoform 3, epithelial form); test: flow cytometry, PANC-1 cells (no antigen purified from this line)
[10] = molecular target: T1, CD44E (CD44 isoform 3, epithelial form); test: flow cytometry, A-375 cells kept on ice for 120 min; over human IgG (4B5)
[11] = molecular target: T1, CD44E (CD44 isoform 3, epithelial form); test: flow cytometry, MB231 cells
Source text: as §1

[12] = molecular target: T1, CD44E (CD44 isoform 3, epithelial form); test: flow cytometry, A-375 cells
[13] = molecular target: T1, CD44E (CD44 isoform 3, epithelial form); test: flow cytometry, MDA-MB-231 cells (moderately positive line)
[14] = molecular target: T1, CD44E (CD44 isoform 3, epithelial form); test: flow cytometry, MCF-7 cells
Source text: as §1

[15] = molecular target: T1, CD44E (CD44 isoform 3, epithelial form); test: flow cytometry, A-375 cells; control 4B5-IgG
Source text: as §1

[16] = molecular target: T1, CD44E (CD44 isoform 3, epithelial form); test: flow cytometry, DAUDI cells (called antigen-negative)
[17] = molecular target: T1, CD44E (CD44 isoform 3, epithelial form); test: flow cytometry, MB435S cells; control 4B5-IgG
Source text: as §1

[18] = molecular target: T1, CD44E (CD44 isoform 3, epithelial form); test: flow cytometry, RAMOS cells (called a negative line)
[19] = molecular target: T1, CD44E (CD44 isoform 3, epithelial form); test: flow cytometry, MCF-7 cells (weakly positive line)
[20] = molecular target: T1, CD44E (CD44 isoform 3, epithelial form); test: flow cytometry, DAUDI cells (called antigen-negative); remark: listed apart in the source
[21] = molecular target: T1, CD44E (CD44 isoform 3, epithelial form); test: flow cytometry, PANC-1 cells; control 4B5-IgG
Source text: as §1

[22] = molecular target: T1, CD44E (CD44 isoform 3, epithelial form); test: flow cytometry, A-375 cells (very positive line)
[23] = molecular target: T1, CD44E (CD44 isoform 3, epithelial form); test: flow cytometry, PANC-1 cells (called a negative line in the immunoprecipitation)
[24] = molecular target: T1, CD44E (CD44 isoform 3, epithelial form); test: flow cytometry, RAMOS cells; control 4B5-IgG
Source text: as §1

[25] = molecular target: T1, CD44E (CD44 isoform 3, epithelial form); test: flow cytometry, A-375 cells, surface-bound antibody after 120 min at 37 °C

T1 sequence (P16070 other isoform, or with tags, fused parts or gaps limits assumed): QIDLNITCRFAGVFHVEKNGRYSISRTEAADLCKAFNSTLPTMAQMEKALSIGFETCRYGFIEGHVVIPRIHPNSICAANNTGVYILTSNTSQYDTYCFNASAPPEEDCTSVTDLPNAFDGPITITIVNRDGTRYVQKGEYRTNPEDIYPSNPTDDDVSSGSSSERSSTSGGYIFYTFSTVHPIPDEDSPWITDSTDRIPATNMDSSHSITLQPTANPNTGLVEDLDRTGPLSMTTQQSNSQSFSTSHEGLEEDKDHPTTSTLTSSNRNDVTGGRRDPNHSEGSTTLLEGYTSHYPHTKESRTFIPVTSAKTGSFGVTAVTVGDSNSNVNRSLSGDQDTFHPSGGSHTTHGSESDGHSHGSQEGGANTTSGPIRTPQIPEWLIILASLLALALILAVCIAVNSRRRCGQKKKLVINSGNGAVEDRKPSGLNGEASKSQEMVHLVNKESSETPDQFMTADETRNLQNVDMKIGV

B1: VB1-008 monoclonal antibody (antibody, V domains shown)
VH: QVQLQELGPRLVRPSQTLILTCTVSGGSVSGDEYYWSWLRQTPGKGLEWIGYMSYRGSSYYSPSLQSRVTIAVDRSKNEFSLKLTSVTAADAAVYFCARKYCGGDCRSGFDIWGRGTMVTVAS
VL: YELTQPPSVSVSPGQKAFITCSGDNLGNKYVCWYQQKPGQSPVLVIYEDTKRPSGIPERFSASNSGNTATLTISGTQPIDEADYYCQAWDSRTEIFGTGTKVTVLS
notes: also called 17P2/C12
fold-increase in median fluorescence over isotype-matched control [1]: 14.2 fold | fold-increase in median fluorescence over isotype-matched control [2]: 1 fold | increase in median fluorescence over isotype-matched control (MF) [3]: 15.8 fold | fold-increase in median fluorescence over isotype-matched control [4]: 4.63 fold | Flow results [5]: 15.8 fold | Kd [6]: 58.8 nM | Flow results [7]: 1.1 fold | Fold-increase in MF [8]: 13.5 fold | Flow results [9]: 8.95 fold | Fold-increase in MF [10]: 31.7 fold | Flow results [11]: 14.2 fold | Flow results [12]: 11.1 fold | increase in median fluorescence over isotype-matched control (MF) [13]: 14.2 fold | Flow results [14]: 4.63 fold | fold-increase in median fluorescence over isotype-matched control [15]: 13.3 fold | Flow results [16]: 1 fold | fold-increase in median fluorescence over isotype-matched control [17]: 15.8 fold | increase in median fluorescence over isotype-matched control (MF) [18]: 1.3 fold | increase in median fluorescence over isotype-matched control (MF) [19]: 4.67 fold | increase in median fluorescence over isotype-matched control (MF) [20]: 1.1 fold | fold-increase in median fluorescence over isotype-matched control [21]: 8.3 fold | increase in median fluorescence over isotype-matched control (MF) [22]: 13.3 fold | increase in median fluorescence over isotype-matched control (MF) [23]: 8.3 fold | fold-increase in median fluorescence over isotype-matched control [24]: 1.1 fold | Fold-increase in MF [25]: 12 fold
